According to US20190046657A1:

How the values were obtained:
[1] = target: mannose-6-phosphate receptor (M6PR) expressed on CCD986SK cells (human skin fibroblasts) (human); assay: cell-based or functional assay
[2] = target: mannose-6-phosphate receptor (M6PR); assay: SPR (BIACORE T200), M6PR on CM5 chip; the reference itself
[3] = target: mannose-6-phosphate receptor (M6PR); assay: SPR (BIACORE T200), M6PR amine-coupled to CM5 chip, analyte 200 nM to 12.5 nM in HBS-EP
[4] = target: mannose-6-phosphate receptor (M6PR); assay: SPR (BIACORE T200), M6PR amine-coupled to CM5 chip, analyte 100 nM to 6.24 nM, HBS-EP pH 7.5, 1:1 Langmuir model
[5] = target: mannose-6-phosphate receptor (M6PR); assay: SPR (BIACORE T200), M6PR amine-coupled to CM5 chip, analyte 50 nM to 3.125 nM, HBS-EP pH 7.5, 1:1 Langmuir model
[6] = target: mannose-6-phosphate receptor (M6PR); assay: SPR, summary table; relative to galsulfase
[7] = target: mannose-6-phosphate receptor (M6PR); assay: SPR, summary table; relative to iduronidase
[8] = target: mannose-6-phosphate receptor (M6PR); assay: SPR (BIACORE T200), M6PR amine-coupled to CM5 chip, analyte 100 nM to 6.25 nM, HBS-EP pH 7.5, 1:1 Langmuir model
[9] = target: mannose-6-phosphate receptor (M6PR); assay: SPR, summary table; relative to imiglucerase
[10] = target: mannose-6-phosphate receptor (M6PR); assay: SPR (BIACORE T200), M6PR amine-coupled to CM5 chip, analyte 200 nM to 12.5 nM, HBS-EP pH 7.5, 1:1 Langmuir model
[11] = target: mannose-6-phosphate receptor (M6PR); assay: SPR, summary table; relative to agalsidase β
[12] = target: mannose-6-phosphate receptor (M6PR); assay: SPR (BIACORE T200), M6PR amine-coupled to CM5 chip
[13] = target: mannose-6-phosphate receptor (M6PR); assay: SPR (BIACORE T200), M6PR on CM5 chip; relative to agalsidase beta

Q: Which intracellular uptake activity (Kuptake) [1] does the source give for “agalsidase β (from UniProt P06280 32-429) (enzyme)” here?
A: The intracellular uptake activity (Kuptake) was 13.7 nM.

Q: What about the relative KD / binding affinity (% of agalsidase beta) [2] of the same molecule?
A: The relative KD / binding affinity (% of agalsidase beta) was 100%.

Q: And the relative ka (% of agalsidase beta) [2]?
A: The relative ka (% of agalsidase beta) was 100%.

Q: What about the relative kd (% of agalsidase beta) [2] of the same molecule?
A: The relative kd (% of agalsidase beta) was 100%.

Q: What about the Kd [3] of the same molecule?
A: Its Kd is 20 nM.

Q: And the koff [3]?
A: Its koff is 0.00273 s⁻¹.

Q: What about the kon [3] of the same molecule?
A: The kon was 135000 M⁻¹ s⁻¹.

Q: With “galsulfase (from UniProt P15848 39-533) (enzyme)” as the molecule, how does the Kd [4] read?
A: Its Kd is 0.38 nM.

Q: What about the koff [4] of the same molecule?
A: The koff was 0.0013 s⁻¹.

Q: What about the kon [4] of the same molecule?
A: Its kon is 3.49e+06 M⁻¹ s⁻¹.

Q: “iduronidase (from UniProt P35475 26-653) (enzyme)” was tested. Which Kd [5] did it give?
A: Its Kd is 0.59 nM.

Q: What about the koff [5] of the same molecule?
A: The koff was 0.00565 s⁻¹.

Q: What about the kon [5] of the same molecule?
A: Its kon is 1.69e+07 M⁻¹ s⁻¹.

Q: “imiglucerase (from UniProt P04062 40-536) (enzyme)” was tested. Which Kd [4] did it give?
A: Its Kd is 17.3 nM.

Q: What about the koff [4] of the same molecule?
A: The koff was 0.00387 s⁻¹.

Q: And the kon [4]?
A: Its kon is 232000 M⁻¹ s⁻¹.

Q: Which Binding affinity to M6PR (vs. 1st ERT) [6] does the source give for “long-acting galsulfase conjugate (galsulfase-polyethylene glycol linker-immunoglobulin Fc conjugate) (from UniProt P15848 39-533)” here?
A: The Binding affinity to M6PR (vs. 1st ERT) was 25%.

Q: What about the Kd [4] of the same molecule?
A: The Kd was 1.48 nM.

Q: And the koff [4]?
A: The koff was 0.00122 s⁻¹.

Q: What about the kon [4] of the same molecule?
A: The kon was 832000 M⁻¹ s⁻¹.

B1: long-acting iduronidase conjugate (laronidase-polyethylene linker-immunoglobulin Fc conjugate) (protein, part only; not given: Fc and PEG linker, UniProt P35475 26-653, looked up, not shown: a dimerising Fc or GST)
chain: AEAPHLVHVDAARALWPLRRFWRSTGFCPPLPHSQADQYVLSWDQQLNLAYVGAVPHRGIKQVRTHWLLELVTTRGSTGRGLSYNFTHLDGYLDLLRENQLLPGFELMGSASGHFTDFEDKQQVFEWKDLVSSLARRYIGRYGLAHVSKWNFETWNEPDHHDFDNVSMTMQGFLNYYDACSEGLRAASPALRLGGPGDSFHTPPRSPLSWGLLRHCHDGTNFFTGEAGVRLDYISLHRKGARSSISILEQEKVVAQQIRQLFPKFADTPIYNDEADPLVGWSLPQPWRADVTYAAMVVKVIAQHQNLLLANTTSAFPYALLSNDNAFLSYHPHPFAQRTLTARFQVNNTRPPHVQLLRKPVLTAMGLLALLDEEQLWAEVSQAGTVLDSNHTVGVLASAHRPQGPADAWRAAVLIYASDDTRAHPNRSVAVTLRLRGVPPGPGLVYVTRYLDNGLCSPDGEWRRLGRPVFPTAEQFRRMRAAEDPVAAAPRPLPAGGRLTLRPALRLPSLLLVHVCARPEKPPGQVTRLRALPLTQGQLVLVWSDEHVGSKCLWTYEIQFSQDGKAYTPVSRKPSTFNLFVFSPDTGAVSGSYRVRALDYWARPGPFSDPVPYLEVPVPRGPPSPGNP
modifications: N-terminus covalently linked to a 10 kDa polyethylene glycol linker (ALD-PEG-ALD), whose other end is linked to the N-terminus of one chain of the immunoglobulin Fc
Q: With B1 as the molecule, how does the Binding affinity to M6PR (vs. 1st ERT) [7] read?
A: Its Binding affinity to M6PR (vs. 1st ERT) is 13%.

Q: And the Kd [8]?
A: The Kd was 4.72 nM.

Q: And the koff [8]?
A: Its koff is 0.00223 s⁻¹.

Q: And the kon [8]?
A: Its kon is 474000 M⁻¹ s⁻¹.

B2: long-acting imiglucerase conjugate (imiglucerase-polyethylene glycol linker-immunoglobulin Fc conjugate) (protein, part only; not given: Fc and PEG linker, human, UniProt P04062 40-536, looked up, not shown: a dimerising Fc or GST)
chain: ARPCIPKSFGYSSVVCVCNATYCDSFDPPTFPALGTFSRYESTRSGRRMELSMGPIQANHTGTGLLLTLQPEQKFQKVKGFGGAMTDAAALNILALSPPAQNLLLKSYFSEEGIGYNIIRVPMASCDFSIRTYTYADTPDDFQLHNFSLPEEDTKLKIPLIHRALQLAQRPVSLLASPWTSPTWLKTNGAVNGKGSLKGQPGDIYHQTWARYFVKFLDAYAEHKLQFWAVTAENEPSAGLLSGYPFQCLGFTPEHQRDFIARDLGPTLANSTHHNVRLLMLDDQRLLLPHWAKVVLTDPEAAKYVHGIAVHWYLDFLAPAKATLGETHRLFPNTMLFASEACVGSKFWEQSVRLGSWDRGMQYSHSIITNLLYHVVGWTDWNLALNPEGGPNWVRNFVDSPIIVDITKDTFYKQPMFYHLGHFSKFIPEGSQRVGLVASQKNDLDAVALMHPDGSAVVVVLNRSSKDVPLTIKDPAVGFLETISPGYSIHTYLWRRQ
modifications: N-terminus covalently linked to a 10 kDa polyethylene glycol linker (ALD-PEG-ALD), whose other end is linked to the N-terminus of one chain of the immunoglobulin Fc
Q: B2 was tested. Which Binding affinity to M6PR (vs. 1st ERT) [9] did it give?
A: The Binding affinity to M6PR (vs. 1st ERT) was 22%.

Q: And the Kd [10]?
A: Its Kd is 79.6 nM.

Q: And the koff [10]?
A: Its koff is 0.0039 s⁻¹.

Q: And the kon [10]?
A: The kon was 49000 M⁻¹ s⁻¹.

B3: long-acting agalsidase β conjugate (agalsidase β-polyethylene glycol linker-immunoglobulin Fc conjugate) (protein, part only; not given: Fc and PEG linker, UniProt P06280 32-429, looked up, not shown: a dimerising Fc or GST)
chain: LDNGLARTPTMGWLHWERFMCNLDCQEEPDSCISEKLFMEMAELMVSEGWKDAGYEYLCIDDCWMAPQRDSEGRLQADPQRFPHGIRQLANYVHSKGLKLGIYADVGNKTCAGFPGSFGYYDIDAQTFADWGVDLLKFDGCYCDSLENLADGYKHMSLALNRTGRSIVYSCEWPLYMWPFQKPNYTEIRQYCNHWRNFADIDDSWKSIKSILDWTSFNQERIVDVAGPGGWNDPDMLVIGNFGLSWNQQVTQMALWAIMAAPLFMSNDLRHISPQAKALLQDKDVIAINQDPLGKQGYQLRQGDNFEVWERPLSGLAWAVAMINRQEIGGPRSYTIAVASLGKGVACNPACFITQLLPVKRKLGFYEWTSRLRSHINPTGTVLLQLENTMQMSLKDLL
modifications: N-terminus covalently linked to a 10 kDa polyethylene glycol linker (ALD-PEG-ALD), whose other end is linked to the N-terminus of one chain of the immunoglobulin Fc
Q: What does the source list for B3?
A: Intracellular uptake (vs. 1st ERT) [1]: 47%; intracellular uptake activity (Kuptake) [1]: 29.3 nM; Binding affinity to M6PR (vs. 1st ERT) [11]: 68%; Kd [12]: 29.6 nM; koff [12]: 0.00277 s⁻¹; kon [12]: 80000 M⁻¹ s⁻¹; relative KD / binding affinity (% of agalsidase beta) [13]: 67.6%; relative ka (% of agalsidase beta) [13]: 70.4%; relative kd (% of agalsidase beta) [13]: 101%
